Source: publication PMC4529233, “In Silico Generation of Peptides by Replica Exchange Monte Carlo: Docking-Based Optimization of Maltose-Binding-Protein Ligands” (PLoS ONE, 2015)
Like-named read-outs stand apart in the source and are kept apart here. No end group written: not given here.

Legend:
MBP [1] = molecular target: T1, MBP (Escherichia coli, UniProt P0AEX9); assay: Surface Plasmon Resonance, immobilized MBP, peptides as analytes; type: binding; conditions: for SPR signal variations in the explored concentration range: dose response assay
T1 construct: made in house; host or cells: E. coli BL21(DE3)
Procedure: The interactions between the protein and computationally optimized peptides were measured using the BIAcore 3000 (GE Healthcare Milano, Italy). […] Residual reactive groups were deactivated by treatment with 1 M ethanolamine hydrochloride, pH 8.5. The reference channel was activated with EDC/NHS and deactivated with ethanolamine. The binding assays were carried out at 20 μL /min at 25°C, with 4.5 min contact-time. Peptides were diluted in the HBS running buffer (10 mM Hepes, 150 mM NaCl, 3 mM EDTA, pH 7.4). Analyte injections were performed at the indicated concentrations. The sensor surface was regenerated by using 1–3 washes of 10mM NaOH for 1 minute. The association phase (kon) was followed for 250s, whereas the dissociation phase (koff) was followed for 300 s. The instrument BIAevaluation analysis package (version 4.1, GE Healthcare, Milano, Italy) was used to subtract the signal of the reference channel. Conversely, an affinity steady state model was applied to fit the RUmax data versus peptides concentrations and fitting was performed with GraphPad Prism v4.00 using the one-site binding equation [53, 54].

OPPA = conditions: KAK+OPPA; cited from earlier work
MBP [2] = molecular target: T1, MBP; conditions: cited from earlier work
[3] = immobilized MBP on CM5 chip, 25°C, HBS pH 7.4

Row | Substance | KD (SPR determined) (MBP [1]; [3]) | also measured
1 | YGDGYFRF [MBP-10, peptide along the minimization path of MBP-9] | No binding | SPR signal variations in the explored concentration range (MBP [1]): did not give valuable signal variations
2 | WGTNGGTR [MBP-2, computationally designed octapeptide] | CBE | –
3 | WHPRPVWE-NH2 [MBP-8] | – | Kd (MBP [1]; immobilized MBP on CM5 chip, 25°C, HBS pH 7.4, read-out: KD (SPR determined)): 200 ± 5 µM
4 | YHDGYFRF [MBP-11, peptide along the minimization path of MBP-9] | No binding | SPR signal variations in the explored concentration range (MBP [1]): did not give valuable signal variations
5 | KAK | – | experimentally determined binding energy (OPPA): -9.8 kcal/mol
6 | GLPKPGGN [MBP-5, computationally designed octapeptide] | CBE | –
7 | maltotriose | – | experimental binding energy (MBP [2]; compared with the closed configuration score): -9.3 kcal/mol; experimental binding energy (MBP [2]; compared with the open configuration score): -8.4 kcal/mol
8 | WSPNFWWR [MBP-7, computationally designed octapeptide] | CBE | –
9 | PQYPPHDN [MBP-4, computationally designed octapeptide] | CBE | –
